How the values were obtained:
IgG1 [1] = biological target: T1, IgG1 (human, UniProt P01857-1 P01857-1:1-330); assay: SPR; solution A: 145 mM NaCl, 5.4 mM KCl, 1.8 mM CaCl2, 0.8 mM MgCl2, 20 mM Tris pH 7.6; settings: tags: Calbiochem; chain copies: 2; label: 3' A16 tail for immobilisation; GGUGCU bulge
Experimental: (§1) Used for the measurements was BIAcore 2000 manufactured by BIAcore. Used as the sensor chip was the SA chip having streptavidin immobilized thereon. Bound thereto was about 1000 RU of 16-residue Poly dT having biotin bound to the 5′ end thereof. The RNA for use as the ligand had 16-residue Poly A added to the 3′ end thereof, and immobilized to the SA chip via a bond between dT and A. The amount immobilized was adjusted to about 1000 RU by injecting 60 μL at a concentration of 0.01 μg/μL. 70 μL of IgG-Fc for analyte (manufactured by Athens Research & Technology), adjusted to 0.6 μM, was injected. The running buffer used had the same components as those of the solution A used in SELEX.
The dissociation constant was determined by immobilizing an RNA having 16-residue PolyA added to the 3′ end thereof onto a sensor chip via an A-dT bond, injecting different concentrations of IgG (0.6 μM to 0.05 μM), and performing surface plasmon resonance.

Protein A = Protein A (UniProt P02976 P02976:37-485); assay: SPR; control; Protein A bound only when IgG1 was on the aptamer; settings: tags: MP Biomedicals; label: 3' A16 tail for immobilisation; GGUGCU bulge
Chain of Protein A (P02976 37-485, one chain of several): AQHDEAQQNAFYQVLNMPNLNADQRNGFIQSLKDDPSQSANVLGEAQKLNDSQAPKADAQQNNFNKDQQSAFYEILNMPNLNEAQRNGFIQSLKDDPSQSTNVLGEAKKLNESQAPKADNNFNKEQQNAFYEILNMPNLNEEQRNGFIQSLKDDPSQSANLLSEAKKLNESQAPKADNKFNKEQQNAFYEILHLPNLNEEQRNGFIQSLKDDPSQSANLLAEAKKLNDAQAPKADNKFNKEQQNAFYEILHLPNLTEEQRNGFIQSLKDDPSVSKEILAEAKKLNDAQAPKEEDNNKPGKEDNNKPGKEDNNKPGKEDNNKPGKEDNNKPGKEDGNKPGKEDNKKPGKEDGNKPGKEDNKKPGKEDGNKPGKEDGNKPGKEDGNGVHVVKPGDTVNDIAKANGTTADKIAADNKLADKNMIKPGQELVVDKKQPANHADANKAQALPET
Experimental: as §1

IgG2 = IgG2 (human, UniProt P01859-1 P01859-1:99-326); assay: SPR; settings: tags: Calbiochem, chain copies: 2, label: 3' A16 tail for immobilisation
Chain of IgG2 (P01859 other isoform, or with tags, fused parts or gaps): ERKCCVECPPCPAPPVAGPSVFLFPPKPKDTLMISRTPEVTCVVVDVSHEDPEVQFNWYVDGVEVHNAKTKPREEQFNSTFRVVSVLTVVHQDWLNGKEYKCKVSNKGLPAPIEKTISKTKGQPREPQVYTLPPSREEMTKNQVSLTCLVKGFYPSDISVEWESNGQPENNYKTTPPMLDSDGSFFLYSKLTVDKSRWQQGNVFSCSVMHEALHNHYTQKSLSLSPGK
Experimental: as §1
(§2) Whether or not the prepared RNA aptamers also have binding affinity for subclasses of IgG other than human IgG1 or for IgG of animal species other than humans was determined using a surface plasmon resonance method. Measurements were performed in the same manner as Example 1 by immobilizing a nucleic acid having 16-residue Poly A added thereto via an A-pT bond, and injecting IgG thereto. Used as the RNA aptamers were the nucleic acids shown by SEQ ID NO:1 and 17. Used as the antibodies were human IgG1 (manufactured by Calbiochem), human IgG2 (manufactured by Calbiochem), human IgG3 (manufactured by Calbiochem), human IgG4 (manufactured by Calbiochem), mouse IgG1 (manufactured by Chemicon International), mouse IgG2a (manufactured by Chemicon International), mouse IgG2b (manufactured by Zymed Laboratories), mouse IgG3 (manufactured by Bethyl Laboratories), rat IgG1 (manufactured by R & D Systems), rat IgG2a. (manufactured by Zymed Laboratories), rat IgG2b. (manufactured by Zymed Laboratories), rat IgG2c (manufactured by UK-Serotec), rabbit IgG (manufactured by Zymed Laboratories), bovine IgG1 (manufactured by Bethyl Laboratories), bovine IgG2 (manufactured by Bethyl Laboratories), chicken IgG (manufactured by Rockland), dog IgG (manufactured by Rockland), cat IgG (manufactured by Bethyl Laboratories), guinea pig IgG (manufactured by Biogenesis), hamster IgG (manufactured by Rockland), and swine IgG (manufactured by Rockland).

IgG4 = IgG4 (human, UniProt P01861-1 P01861-1:99-327); assay: SPR; settings: tags: Calbiochem, chain copies: 2, label: 3' A16 tail for immobilisation
Chain of IgG4 (P01861 other isoform, or with tags, fused parts or gaps): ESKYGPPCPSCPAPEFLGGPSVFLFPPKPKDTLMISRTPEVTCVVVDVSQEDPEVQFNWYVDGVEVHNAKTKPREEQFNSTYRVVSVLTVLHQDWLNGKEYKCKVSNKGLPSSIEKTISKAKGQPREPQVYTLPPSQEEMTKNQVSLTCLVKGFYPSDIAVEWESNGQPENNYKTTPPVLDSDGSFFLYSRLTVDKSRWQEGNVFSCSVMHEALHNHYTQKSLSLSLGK
Experimental: as §1, §2

IgG3 = IgG3 (human, UniProt P01860-1 P01860-1:99-377); assay: SPR; settings: tags: Calbiochem, chain copies: 2, label: 3' A16 tail for immobilisation
Chain of IgG3 (P01860 other isoform, or with tags, fused parts or gaps): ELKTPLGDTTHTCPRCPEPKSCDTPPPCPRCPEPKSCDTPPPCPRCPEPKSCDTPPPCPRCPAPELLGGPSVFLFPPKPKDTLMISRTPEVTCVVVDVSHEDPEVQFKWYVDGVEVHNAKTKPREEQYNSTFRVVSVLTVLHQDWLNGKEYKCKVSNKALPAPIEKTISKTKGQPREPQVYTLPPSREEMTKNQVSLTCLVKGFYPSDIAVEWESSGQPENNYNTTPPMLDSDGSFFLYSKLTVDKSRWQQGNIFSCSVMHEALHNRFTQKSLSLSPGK
Experimental: as §1, §2

IgG2a = IgG2a (mouse, UniProt P01863 P01863:98-330); assay: SPR; settings: tags: Chemicon International, chain copies: 2, label: 3' A16 tail for immobilisation
Chain of IgG2a (P01863 98-330, one chain of several): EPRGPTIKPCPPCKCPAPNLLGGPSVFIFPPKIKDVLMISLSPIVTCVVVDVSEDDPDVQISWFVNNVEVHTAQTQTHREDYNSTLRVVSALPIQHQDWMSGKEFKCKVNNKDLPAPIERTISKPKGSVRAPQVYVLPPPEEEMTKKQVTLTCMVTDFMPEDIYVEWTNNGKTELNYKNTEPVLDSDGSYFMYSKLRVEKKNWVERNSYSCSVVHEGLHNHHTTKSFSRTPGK
Experimental: as §1, §2

IgG = IgG (rabbit, UniProt P01870 P01870:1-323); assay: SPR; settings: tags: Zymed Laboratories, chain copies: 2, label: 3' A16 tail for immobilisation
Chain of IgG (P01870 whole entry, one chain of several): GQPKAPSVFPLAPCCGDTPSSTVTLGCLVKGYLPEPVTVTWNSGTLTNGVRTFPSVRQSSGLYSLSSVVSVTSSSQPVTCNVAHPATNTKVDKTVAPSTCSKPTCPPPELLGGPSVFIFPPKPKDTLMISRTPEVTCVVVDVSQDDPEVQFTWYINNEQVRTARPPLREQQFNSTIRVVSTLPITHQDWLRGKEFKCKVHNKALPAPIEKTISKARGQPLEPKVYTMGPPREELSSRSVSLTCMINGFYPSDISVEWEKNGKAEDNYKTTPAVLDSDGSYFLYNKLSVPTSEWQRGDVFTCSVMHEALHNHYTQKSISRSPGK
Experimental: as §1, §2

IgG2b = IgG2b (mouse, UniProt P01867-2 P01867-2:98-335); assay: SPR; settings: tags: Zymed Laboratories, chain copies: 2, label: 3' A16 tail for immobilisation
Chain of IgG2b (P01867 other isoform, or with tags, fused parts or gaps): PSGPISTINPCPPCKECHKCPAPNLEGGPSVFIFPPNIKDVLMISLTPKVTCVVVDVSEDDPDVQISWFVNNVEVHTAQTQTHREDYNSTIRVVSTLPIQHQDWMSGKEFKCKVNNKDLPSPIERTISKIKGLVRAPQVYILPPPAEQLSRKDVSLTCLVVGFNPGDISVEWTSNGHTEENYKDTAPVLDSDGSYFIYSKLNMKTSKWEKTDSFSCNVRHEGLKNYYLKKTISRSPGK
Experimental: as §1, §2

IgG2c = IgG2c (rat, UniProt P20762 P20762:1-329); assay: SPR; settings: tags: UK-Serotec, chain copies: 2, label: 3' A16 tail for immobilisation
Chain of IgG2c (P20762 whole entry, one chain of several): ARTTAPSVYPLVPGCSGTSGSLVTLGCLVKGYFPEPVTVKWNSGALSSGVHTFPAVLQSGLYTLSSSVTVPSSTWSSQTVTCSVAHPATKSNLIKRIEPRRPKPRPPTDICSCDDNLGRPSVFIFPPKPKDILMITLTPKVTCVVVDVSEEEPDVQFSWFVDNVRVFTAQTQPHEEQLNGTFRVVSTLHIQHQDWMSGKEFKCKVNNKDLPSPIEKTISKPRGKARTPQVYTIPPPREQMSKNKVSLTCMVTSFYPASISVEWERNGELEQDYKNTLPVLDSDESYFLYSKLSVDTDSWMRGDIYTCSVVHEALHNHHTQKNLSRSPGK
Experimental: as §1, §2

IgG1 [2] = biological target: T1, IgG1; assay: SPR; solution A; short aptamers fit bivalent 1:2 model better; settings: tags: Calbiochem; chain copies: 2; label: 3' A16 tail for immobilisation
IgG1 [3] = biological target: T1, IgG1; assay: SPR; settings: tags: Calbiochem, chain copies: 2
IgG1 [4] = biological target: T1, IgG1; assay: SPR; parent SEQ 15 ++++; settings: tags: Calbiochem; chain copies: 2
IgG1 [5] = biological target: T1, IgG1; assay: SPR; +++ in Table 4; binding not reduced in 500 mM NaCl, 2 mM MgCl2; settings: tags: Calbiochem; chain copies: 2
IgG1 [6] = biological target: T1, IgG1; assay: SPR; text says higher than SEQ 17, table shows equal; settings: tags: Calbiochem; chain copies: 2
Experimental: as §1
(§3) The RNAs were prepared by chemical synthesis (manufactured by Gene Design). Their binding affinities were measured by a surface plasmon resonance method as in Example 1. Used as the IgG was human IgG1 (manufactured by Calbiochem).

IgG1 [7] = biological target: T1, IgG1; assay: SPR; parent SEQ 17 ++; settings: tags: Calbiochem; chain copies: 2
Experimental: as §1, §3

[8] = label: 3' A16 tail for immobilisation

T1 sequence (P01857 other isoform, or with tags, fused parts or gaps): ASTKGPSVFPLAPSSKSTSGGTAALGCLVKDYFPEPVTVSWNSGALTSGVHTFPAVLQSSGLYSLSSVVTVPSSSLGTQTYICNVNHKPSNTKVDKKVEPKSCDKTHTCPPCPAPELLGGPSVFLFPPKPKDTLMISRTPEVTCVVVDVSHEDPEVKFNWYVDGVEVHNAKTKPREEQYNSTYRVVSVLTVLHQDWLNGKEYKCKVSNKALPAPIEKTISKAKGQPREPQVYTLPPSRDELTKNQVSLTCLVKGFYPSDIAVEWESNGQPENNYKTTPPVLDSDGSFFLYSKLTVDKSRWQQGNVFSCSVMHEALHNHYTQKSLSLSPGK

B1: SEQ ID NO:1 (ssRNA)
RNA: GGGACACAAUGGACGAGUUACAGGUGCUCCAUCAACAAAAUGUUACAUGGAACUGUAACGGCCGACAUGAGAG
modifications: 2'-F at all pyrimidines
In the case of B1, the Kd (IgG1 [1]) is reported as 0.3 nM, the binding result (Protein A) is reported as “no binding” and the binding result (IgG2; GGUGCU bulge) is reported as “binds”. B1: binds (IgG4; GGUGCU bulge); binds (IgG3; GGUGCU bulge); no binding (IgG2a; GGUGCU bulge). B1: no binding (IgG; GGUGCU bulge); no binding (IgG2b; GGUGCU bulge); no binding (IgG2c; GGUGCU bulge).

For GGAGGUGCUCCGAAAGGAACUCC (ssRNA, 2'-F at all pyrimidines) [SEQ ID NO:17], the Kd (IgG1 [2]) was 10 nM, the binding result (IgG2) was “binds” and the binding result (IgG4) was “binds”. GGAGGUGCUCCGAAAGGAACUCC (ssRNA, 2'-F at all pyrimidines) [SEQ ID NO:17]: binds (IgG3); no binding (IgG2a); no binding (IgG). GGAGGUGCUCCGAAAGGAACUCC (ssRNA, 2'-F at all pyrimidines) [SEQ ID NO:17]: no binding (IgG2b); no binding (IgG2c).

B2: SEQ ID NO:19 (ssRNA)
RNA: GGGUACGAGUCUGGACUUGCAACAAGGUGCUCCACCUACCUAGUGGAACUUGCUGAUGAGGCUCACAACAGGC
modifications: 2'-F at all pyrimidines
B2: binds (IgG1 [3]).

B3: SEQ ID NO:20 (ssRNA)
RNA: GGGUACGAGUCUGGACUUGCAAGGUGCUCCGUUAGCAUUGCGGAACUUGCAAUAUAUCCUAUUGAGGCUCACAACAGGC
modifications: 2'-F at all pyrimidines
B3: binds (IgG1 [3]; GGUGCU bulge).

B4: SEQ ID NO:21 (ssRNA)
RNA: GGGUACGAGUCUGGACUUGCAACGGAUACAGGUGCUCCGAUCUUCGGAACUGGCGUUGGCGGUGAGGCUCACAACAGGC
modifications: 2'-F at all pyrimidines
B4: binds (IgG1 [3]; GGUGCU bulge).

B5: SEQ ID NO:22 (ssRNA)
RNA: GGGUACGAGUCUGGACUUGCAAUACGAGGUGCUCCAAGGAAUCGCCCUGGAACUCGACGACGUGAGGCUCACAACAGGC
modifications: 2'-F at all pyrimidines
B5: binds (IgG1 [3]; GGUGCU bulge).

B6: SEQ ID NO:23 (ssRNA)
RNA: GGGUACGAGUCUGGACUUGCAACCUAAUGCGGUGCUCCUCUGGAACCAUUAGCUGUUGCAAAUGAGGCUCACAACAGGC
modifications: 2'-F at all pyrimidines
B6: binds (IgG1 [3]).

GGACAGGUGCUCCAUCAACAAAAUGUUACAUGGAACUGUCC (ssRNA, 2'-F at all pyrimidines) [SEQ ID NO:12]: binds (IgG1 [3]; [8]).

GGACAGGUGCUCUGCGAGCCACGCGGAACUGUCC (ssRNA, 2'-F at all pyrimidines) [SEQ ID NO:13]: binds (IgG1 [3]; [8]).

GGAGGUGCUCGAAAGAACUCC (ssRNA, 2'-F at all pyrimidines) [SEQ ID NO:18]: binds (IgG1 [3]; [8]).

GGAGGUGUUCCGAAAGGAACUCC (ssRNA, 2'-F at all pyrimidines [2'-F pyrimidines at 6,8,9,10,11,20,21,22,23]) [SEQ ID NO:17 C8U]: no binding (IgG1 [3]).

B7: SEQ ID NO:15-3 (30F-3) (mixed)
RNA: GGAGGUGCUCCGCGAGCCACGCGGAACUCC
modifications: deoxy G1 G2 C11 C13 A15-A19 C20 C22 C29 C30; 2'-F U6 C8 U9 C10 C27 U28; rest 2'-OH
B7: binds (IgG1 [4]).

B8: SEQ ID NO:15-4 (30F-4) (mixed)
RNA: GGAGGUGCUCCGCGGAAACGCGGAACUCC
modifications: deoxy G1 G2 C13 G15 A16 A17 A18 C19 C21 C28 C29; 2'-F U6 C8 U9 C10 C11 C26 U27; rest 2'-OH
B8: binds (IgG1 [4]).

B9: SEQ ID NO:17-7 (23F23) (mixed)
RNA: GGAGGUGCUCCGAAAGGAACUCCAAAAAAAAAAAAAAAA
modifications: deoxy G1 G2 C8 C10 C11 G12-A15 A18 A19 C22 C23 and A16 tail; 2'-F U6 U9 C20 U21; rest 2'-OH
B9: binds (IgG1 [5]).

GGAGGUGCUCCGAAAGGAACUCCAAAAAAAAAAAAAAAA (mixed, as 17-7 with 2'-OMe G16) [SEQ ID NO:17-9 (23F32)]: binds (IgG1 [6]).

GGAGGUGCUCCGAAAGGAACUCCAAAAAAAAAAAAAAAA (mixed, as 17-7 with 2'-OMe G17) [SEQ ID NO:17-10 (23F33)]: binds (IgG1 [7]).

GGAGGUGCUCCGAAAGGAACUCCAAAAAAAAAAAAAAAA (mixed, as 17-8 with 2'-OMe U9) [SEQ ID NO:17-11 (23F41)]: binds (IgG1 [7]).

GGAGGUGCUCCGAAAGGAACUCCAAAAAAAAAAAAAAAA (mixed, as 17-8 with 2'-OMe C10) [SEQ ID NO:17-12 (23F42)]: binds (IgG1 [7]).

Reference: patent US20090170219, “Nucleic acid capable of binding to immunoglobulin G and use thereof” (published 2009)
